What was measured:
[1] = target: T1, GST-Fob1 (prep also contains free Fob1) (Saccharomyces cerevisiae) (UniProt O13329); experiment: EMSA; conditions: 10 mM Tris pH 7.5, 1 mM EDTA, 0.1 M KCl, 0.1 mM DTT, 5% glycerol, 20 ul, 30 C 30 min; 6% PAGE in 0.5X TBE
T1 sequence: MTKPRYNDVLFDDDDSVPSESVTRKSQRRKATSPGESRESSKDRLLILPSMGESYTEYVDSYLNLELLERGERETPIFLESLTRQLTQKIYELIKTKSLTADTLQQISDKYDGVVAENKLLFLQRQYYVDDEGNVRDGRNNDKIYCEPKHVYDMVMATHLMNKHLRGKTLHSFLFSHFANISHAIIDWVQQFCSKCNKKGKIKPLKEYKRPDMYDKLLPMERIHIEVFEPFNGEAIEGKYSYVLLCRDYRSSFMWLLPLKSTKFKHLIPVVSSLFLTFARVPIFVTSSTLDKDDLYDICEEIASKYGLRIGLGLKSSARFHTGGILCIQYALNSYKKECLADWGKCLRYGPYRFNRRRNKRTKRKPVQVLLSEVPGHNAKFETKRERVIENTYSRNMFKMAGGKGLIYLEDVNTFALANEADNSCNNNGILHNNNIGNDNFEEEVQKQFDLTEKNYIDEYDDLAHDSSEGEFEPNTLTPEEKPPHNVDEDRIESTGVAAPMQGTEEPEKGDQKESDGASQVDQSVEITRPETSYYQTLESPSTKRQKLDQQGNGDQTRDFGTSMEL

[2] = target: T1, GST-Fob1 (prep also contains free Fob1) (Saccharomyces cerevisiae); experiment: competition; conditions: 10 mM Tris pH 7.5, 1 mM EDTA, 0.1 M KCl, 0.1 mM DTT, 5% glycerol, 20 ul, 30 C 30 min; 6% PAGE in 0.5X TBE

Question: “TGCTAGTGTTTGCAAGATGGTGCTTTTTTTTCTTTAGATTGCCACGTTTCTGCTCCT (double strand) [RDT1 promoter probe (57 bp)]” was tested. Which binding [1] did it give?
Answer: binds

Question: What about the binding [2] of the same sequence?
Answer: binds

— article PMC10132618
